Measurements as given in patent US20180250364A1, “Methods of Using Interleukin-10 for Treating Diseases and Disorders” (published 2018).

T1: mIL-10 receptors (R1 and R2) (mouse, UniProt Q61727)
T1 sequence 1: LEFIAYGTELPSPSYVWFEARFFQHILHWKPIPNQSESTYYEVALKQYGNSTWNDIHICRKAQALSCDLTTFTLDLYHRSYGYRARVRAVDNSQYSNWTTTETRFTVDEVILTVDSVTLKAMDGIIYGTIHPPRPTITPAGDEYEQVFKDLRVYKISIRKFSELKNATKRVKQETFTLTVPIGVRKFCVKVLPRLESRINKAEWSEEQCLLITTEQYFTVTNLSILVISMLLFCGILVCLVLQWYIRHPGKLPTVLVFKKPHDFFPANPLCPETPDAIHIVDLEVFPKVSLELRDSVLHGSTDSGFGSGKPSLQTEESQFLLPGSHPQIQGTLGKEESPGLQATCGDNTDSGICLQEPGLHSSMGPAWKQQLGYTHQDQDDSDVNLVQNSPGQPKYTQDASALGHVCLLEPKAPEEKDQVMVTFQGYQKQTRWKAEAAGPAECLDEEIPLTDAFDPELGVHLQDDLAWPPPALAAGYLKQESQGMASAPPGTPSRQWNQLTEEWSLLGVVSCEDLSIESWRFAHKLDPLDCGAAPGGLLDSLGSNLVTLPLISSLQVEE
T1 sequence 2: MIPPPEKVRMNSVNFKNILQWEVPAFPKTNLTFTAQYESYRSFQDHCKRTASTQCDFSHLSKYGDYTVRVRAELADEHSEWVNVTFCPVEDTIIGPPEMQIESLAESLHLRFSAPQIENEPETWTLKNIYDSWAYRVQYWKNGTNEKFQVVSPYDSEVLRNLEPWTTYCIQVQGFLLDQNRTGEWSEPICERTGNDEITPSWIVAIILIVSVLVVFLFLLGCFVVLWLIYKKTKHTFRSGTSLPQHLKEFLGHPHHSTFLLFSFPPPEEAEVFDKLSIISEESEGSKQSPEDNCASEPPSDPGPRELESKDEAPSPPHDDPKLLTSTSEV

B1: Murine IL-10 (ligand)
chain: SRGQYSREDNNCTHFPVGQSHMLLELRTAFSQVKTFFQTKDQLDNILLTDSLMQDFKGYLGCQALSEMIQFYLVEVMPQAEKHGPEIKEHLNSLGEKLKTLRMRLRRCHRFLPCENKSKAVEQVKSDFNKLQDQGVYKAMNEFDIFINCIEAYMMIKMKS
B2: PEG-mIL-10 (ligand)
chain: B1 chain
modifications: pegylated; prepared with the SC-PEG-12K linker; attachment residue not stated

Columns and labels:
[1] = target: T1, mIL-10 receptors (R1 and R2); assay: cell-based or functional assay
[2] = target: T1, mIL-10 receptors (R1 and R2); assay: cell-based or functional assay; remark: listed apart in the source

Binder | EC50 (ng/mL) in MC/9 Assay [1] | MC/9 proliferation (Alamar Blue), specific activity [2]
B1 | 0.571 ng/mL | –
B2 | 4.04 ng/mL | ~7 fold
